According to patent US20220233746A1, “PHARMACEUTICAL COMPOSITION FOR JOINT DISEASE TREATMENT AND METHOD FOR PRODUCING SAME” (EDUCATIONAL FOUNDATION OF OSAKA MEDICAL AND PHARMACEUTICAL …, priority 2019, published 2022):

Key:
[1] = Measurement of mechanical strength of peptide hydrogel (rheology measurement, rheometer); assay type: physicochemical
Method: Next, an equal amount (100 μL) of 2×PBS, 4×PBS, 6×PBS or 10×PBS was added to the aqueous peptide solution and mixed. Therefore, the final concentration of PBS in the mixture was 1×PBS, 2×PBS, 3×PBS, and 5×PBS, respectively. Thereafter, it was allowed to stand still in a cool and dark place for one day. As a result, the peptide in the aqueous peptide solution self-assembled by the action of the salt in PBS, and a peptide hydrogel was obtained. In addition, as a comparative example, Eagle's minimum essential medium (EMEM), which contains salts necessary for gel formation but is considered to be toxic in vivo, or 10 wt % NaCl aqueous solution (final concentration is 5 wt %) was added in an equal amount to the peptide aqueous solution and mixed, and the mixture was allowed to stand still in a cool and dark place for 1 day. A peptide hydrogel was also obtained in this comparative example.
[Example 2: Measurement of mechanical strength of peptide hydrogel] In order to evaluate the mechanical strength of each peptide hydrogel obtained as described above, a rheometer (HAAKE viscosity/viscoelasticity measuring device (HAAKE MARS40) manufactured by Thermo Scientific) was used for each peptide hydrogel and the rheology thereof was measured.

[2] = test system: rabbit meniscus defect; assay: Rabbit meniscus defect model, transplantation of peptide hydrogel into the defect; assay type: in vivo, Japanese white rabbits
Method: First, 20 male Japanese white rabbits weighing 3.0 to 3.4 kg at 6 months of age were prepared, and a cylindrical defect with a diameter of 2.0 mm was prepared in the medial anterior segment of the meniscus of both knees (FIG. 2A). Further, a peptide hydrogel produced by the above method using a peptide of KI24RGDS and 5×PBS was prepared (FIG. 2B), and the peptide hydrogel was filled in the defect. The group in which the defect was filled with peptide hydrogel was designated as the KI24RGDS group, and the group in which no treatment was applied to the defect was designated as the control group. After transplantation, tissue evaluation was performed on the knees of each group using hematoxylin/eosin staining (HE staining) or safranin O staining. Tissue evaluation was performed at 2, 4, 8 and 12 weeks after transplantation, and 5 animals (10 knees) were evaluated at each evaluation period. In addition, the tissue evaluation used Ishida score and Quantitative Analysis of the Occupation Ratio of Tissue Regeneration (R/D ratio). In the evaluation based on Ishida score, scores were given from the three viewpoints shown in Table 1 below, and the degree of tissue repair was evaluated by the total. On the other hand, in the evaluation based on the R/D ratio, the degree of tissue repair was evaluated by analyzing the area of the entire defect (D) and the area of the repaired tissue (R) and calculating the ratio of R/D using ImageJ software as shown in FIG. 3.

[3] = hydrogel made with 5×PBS filled in 2.0 mm meniscus defect, 2, 4, 8 and 12 weeks after transplantation, versus untreated control group

## IKIKIKIKIKRGDSKIKIKIKIKI (Peputide including strand and turn) [KI24RGDS, self-assembling β-hairpin peptide tested as a peptide hydrogel formed by adding PBS, NaCl solution or EMEM to its aqueous solution]
[1]; comparative hydrogel produced with 5 wt % NaCl aqueous solution (final concentration)
  difference between the storage elastic modulus G and the loss elastic modulus G″: approximately 3750
[1]; hydrogel produced with 3×PBS (final concentration)
  difference between the storage elastic modulus G and the loss elastic modulus G″: approximately 3950
[1]; hydrogel produced with 5×PBS (final concentration)
  loss elastic modulus G″ of the peptide hydrogel: about 800
[1]; hydrogel produced with 5×PBS (final concentration), 6% aqueous peptide solution mixed in equal amount
  storage elastic modulus G of the peptide hydrogel: about 15,000
[2]; 2, 4, 8 and 12 weeks after transplantation (FIG. 4)
  macroscopic findings of the meniscus defect: became smaller and repaired
[2]; 2, 4, 8 and 12 weeks after transplantation (FIG. 5)
  safranin O-stained meniscus tissue findings: cells gathered in the defect and the tissue was repaired
[2]; [3]
  Ishida score: higher in the KI24RGDS group than in the control group
  R/D ratio (Occupation Ratio of Tissue Regeneration): higher in the KI24RGDS group than in the control group
